According to article PMC6258877:

Target: short cTag (s-cTag) on a CD8α stalk (human)
Test: flow cytometry on cells; 293T cells transiently transfected with the mimic constructs (co-expressed EGFP), stained with APC-conjugated streptavidin 48 hr later; MedFI of EGFP-positive cells; staining of cTag8 293T cells reversed by 1 mM biotin, 1 hr, room temperature

streptavidin allophycocyanin (APC), sequence (P22629 25-183): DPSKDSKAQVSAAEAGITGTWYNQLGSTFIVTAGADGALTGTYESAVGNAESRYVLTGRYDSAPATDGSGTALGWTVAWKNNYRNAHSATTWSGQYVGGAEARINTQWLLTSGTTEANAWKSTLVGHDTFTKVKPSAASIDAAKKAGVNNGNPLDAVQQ

streptavidin allophycocyanin (APC) (from UniProt P22629 25-183) (natural protein)
median fluorescence intensity (MedFI): 10000
